According to publication PMC9713472 (2022):

B1: AURKA-Venus WT [human] / TPX2 [human (endogenous in U2OS)] (parent complex)
chain 1: MDRSKENCISGPVKATAPVGGPKRVLVTQQFPCQNPLPVNSGQAQRVLCPSNSSQRIPLQAQKLVSSHKPVQNQKQKQLQATSVPHPVSRPLNNTQKSKQPLPSAPENNPEEELASKQKNEESKKRQWALEDFEIGRPLGKGKFGNVYLAREKQSKFILALKVLFKAQLEKAGVEHQLRREVEIQSHLRHPNILRLYGYFHDATRVYLILEYAPLGTVYRELQKLSKFDEQRTATYITELANALSYCHSKRVIHRDIKPENLLLGSAGELKIADFGWSVHAPSSRRTTLCGTLDYLPPEMIEGRMHDEKVDLWSLGVLCYEFLVGKPPFEANTYQETYKRISRVEFTFPDFVTEGARDLISRLLKHNPSQRPMLREVLEHPWITANSSKPSNCQNKESASKQS
chain 2: MSQVKSSYSYDAPSDFINFSSLDDEGDTQNIDSWFEEKANLENKLLGKNGTGGLFQGKTPLRKANLQQAIVTPLKPVDNTYYKEAEKENLVEQSIPSNACSSLEVEAAISRKTPAQPQRRSLRLSAQKDLEQKEKHHVKMKAKRCATPVIIDEILPSKKMKVSNNKKKPEEEGSAHQDTAEKNASSPEKAKGRHTVPCMPPAKQKFLKSTEEQELEKSMKMQQEVVEMRKKNEEFKKLALAGIGQPVKKSVSQVTKSVDFHFRTDERIKQHPKNQEEYKEVNFTSELRKHPSSPARVTKGCTIVKPFNLSQGKKRTFDETVSTYVPLAQQVEDFHKRTPNRYHLRSKKDDINLLPSKSSVTKICRDPQTPVLQTKHRARAVTCKSTAELEAEELEKLQQYKFKARELDPRILEGGPILPKKPPVKPPTEPIGFDLEIEKRIQERESKKKTEDEHFEFHSRPCPTKILEDVVGVPEKKVLPITVPKSPAFALKNRIRMPTKEDEEEDEPVVIKAQPVPHYGVPFKPQIPEARTVEICPFSFDSRDKERQLQKEKKIKELQKGEVPKFKALPLPHFDTINLPEKKVKNVTQIEPFCLETDRRGALKAQTWKHQLEEELRQQKEAACFKARPNTVISQEPFVPKKEKKSVAEGLSGSLVQEPFQLATEKRAKERQELEKRMAEVEAQKAQQLEEARLQEEEQKKEELARLRRELVHKANPIRKYQGLEIKSSDQPLTVPVSPKFSTRFHC

Variants of: B1
Assay: in situ proximity ligation assay (isPLA); mitotic U2OS cells, endogenous TPX2, n ≥ 10 cells; read off a plot

Variant	response [AU]
chain 1 R371A, chain 1 L374A	~1.3
chain 1 L374I	~3.7
chain 1 R371A	~3
chain 1 S155R	~2.6
